# B1: Receptor-type tyrosine-protein phosphatase R (Homo sapiens), Q15256 (parent)
# chain: MRRAVCFPALCLLLNLHAAGCFSGNNDHFLAINQKKSGKPVFIYKHSQDIEKSLDIAPQKIYRHSYHSSSEAQVSKRHQIVNSAFPRPAYDPSLNLLAMDGQDLEVENLPIPAANVIVVTLQMDVNKLNITLLRIFRQGVAAALGLLPQQVHINRLIGKKNSIELFVSPINRKTGISDALPSEEVLRSLNINVLHQSLSQFGITEVSPEKNVLQGQHEADKIWSKEGFYAVVIFLSIFVIIVTCLMILYRLKERFQLSLRQDKEKNQEIHLSPITLQPALSEAKTVHSMVQPEQAPKVLNVVVDPQGRGAPEIKATTATSVCPSPFKMKPIGLQERRGSNVSLTLDMSSLGNIEPFVSIPTPREKVAMEYLQSASRILTRSQLRDVVASSHLLQSEFMEIPMNFVDPKEIDIPRHGTKNRYKTILPNPLSRVCLRPKNVTDSLSTYINANYIRGYSGKEKAFIATQGPMINTVDDFWQMVWQEDSPVIVMITKLKEKNEKCVLYWPEKRGIYGKVEVLVISVNECDNYTIRNLVLKQGSHTQHVKHYWYTSWPDHKTPDSAQPLLQLMLDVEEDRLASQGRGPVVVHCSAGIGRTGCFIATSIGCQQLKEEGVVDALSIVCQLRMDRGGMVQTSEQYEFVHHALCLYESRLSAETVQ
# Variants of: B1
# Settings: with mk14_human MAPK14, Q16539
# Sequence of mk14_human MAPK14, Q16539 (Q16539 whole entry): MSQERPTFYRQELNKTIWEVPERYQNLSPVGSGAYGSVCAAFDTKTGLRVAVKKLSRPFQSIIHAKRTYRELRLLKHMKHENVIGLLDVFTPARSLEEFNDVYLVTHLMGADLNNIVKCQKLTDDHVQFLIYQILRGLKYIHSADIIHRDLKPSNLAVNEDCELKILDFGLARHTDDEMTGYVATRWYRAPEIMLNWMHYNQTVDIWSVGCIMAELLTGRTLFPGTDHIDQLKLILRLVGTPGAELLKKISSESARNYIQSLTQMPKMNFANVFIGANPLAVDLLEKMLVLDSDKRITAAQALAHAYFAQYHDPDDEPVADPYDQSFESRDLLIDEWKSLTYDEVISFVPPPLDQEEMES
row,Variant,effect of a mutation on the interaction
1,S339E,disrupting interaction

# Source: IntAct's records for PubMed 10601328
